Data published in patent US20260125457A1 (Janssen / Centocor, published 2026).
Changes are numbered by the printed parent chain.

T1: HIS-CALRdel52 (produced in E. coli)
T1 construct: also called recombinant CALRdel52 protein; CALRdel53 target protein
T1 chain: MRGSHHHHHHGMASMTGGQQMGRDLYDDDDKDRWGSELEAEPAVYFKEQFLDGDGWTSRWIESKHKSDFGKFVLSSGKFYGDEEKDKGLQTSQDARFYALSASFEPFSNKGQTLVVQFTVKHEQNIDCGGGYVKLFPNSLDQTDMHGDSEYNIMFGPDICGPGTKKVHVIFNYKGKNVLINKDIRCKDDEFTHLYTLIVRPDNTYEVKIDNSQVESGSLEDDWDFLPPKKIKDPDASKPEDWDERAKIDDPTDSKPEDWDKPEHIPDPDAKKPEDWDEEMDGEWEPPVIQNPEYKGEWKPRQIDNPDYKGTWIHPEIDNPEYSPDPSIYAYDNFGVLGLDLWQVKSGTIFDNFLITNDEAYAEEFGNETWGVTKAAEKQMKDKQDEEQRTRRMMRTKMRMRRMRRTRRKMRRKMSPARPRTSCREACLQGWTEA

T2: 22 amino acid CALRmut-specific peptide (acetylation of the terminal amino-group; C-terminal -OH group)
T2 construct: also called 22aa CALRmut peptide; CALRmut target peptide
T2 peptide: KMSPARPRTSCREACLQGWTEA

B1: Clone 18 (Fab, V domains shown)
VH: QSVEESGGRLVTPGTPLTITCTVSGFSLSSYAMSWVRQAPGKGLEWIGVIDSGGTTYYATWAKSRFTISKTQTKVALKITSPTTEDTATYFCARESYAGYDGYGHPIPYGMDPWGPGTLVTVSS
VL: DVVMTQTPSSVSAAVGGTVTINCQASQSLYNNKNLAWYQQKPGQPPKLLIYYASALASGVSSRFKGSGSGTQFTLTISGVQCDDAATYYCQGEFNCNSADCNSFGGGTEVVVK
notes: Rabbit/human chimeric Fab (human CH1, CK) on phage; also soluble Fab-AP
B2: Clone 4 (Fab, V domains shown)
VH: QEQLEESGGRLVTPGTPLTLTCKVSGIDLSNNAISWVRQAPGKGLEYIGVIGNTGDTYYASWAKGRFTISKTSSTTVDLKMTSLTTEDTATYFCVRGPPSYSNSVKNIWGPGTLVTISS
VL: DPMLTQTPSSVSAAVGGTVTINCQSSQSVYNNNWLSWLQQKPGQPPNRLIYDASKLESGVPSRFSGSGSGTQFTLTISGVQRDDAATYYCAGGFTGNVYTFGGGTEVVVK
notes: as for B1
B3: Clone 20 (Fab, V domains shown)
VH: QSLEESGGRLVTPGTPLTLTCTVSGIDLSNNAISWVRQAPGKGLEYIGVIGNTGDTYYASWAKGRFTISKTSSTTVDLKMTSLTTEDTATYFCVRGPPSYSNSVKNIWGPGTLVTISS
VL: DPMLTQTPSSVSAAVGGTVTIGCQSSQSVYDKNWLSWYQQKPGQPPSRLIYDASKLESGVPSRFSGSGSGTQFTLTISGVQCDDAATYYCAGGFTGNVYAFGGGTKLEIK
notes: as for B1
B4: Clone 17 (Fab, V domains shown)
VH: B2 VH with K23T, I34M, D56T, S61N, T75A, E87D, I117V
VL: B2 VL with P2V, N31D, N32K, N47S, R82C, E106K
notes: as for B1
B5: Clone 2 (Fab, V domains shown)
VH: B3 VH with L3V, D55T, T85A, E86S, I116V
VL: B3 VL with S78G
notes: as for B1
B6: Clone 10 (Fab, V domains shown)
VH: B3 VH with L3V
VL: B3 VL with A85V, K106E, L107V, E108V, I109V
notes: as for B1
B7: Clone 16 (Fab, V domains shown)
VH: QEQLKESGGRLVTPGTPLTLTCTASGFSLSNYYMSWVRQAPGKGLEWIGGISSRAGTWYASWAKGRFTISGTSTTMDLKITSPTTEDTATYFCARGLKIWGPGTLVTVSS
VL: DPVLTQTESPVSAAVGGTVTINCQASQSVYDDNNLAWYQQKPGQPPKRLIYPASTLASGVSSRFSGSGSGSQFTLTISDVQCDDAATYYCQGEFSCTSADCVAFGGGTEVVVK
notes: as for B1
B8: Clone 1 (Fab, V domains shown)
VH: QEQLKESGGRLVTPGTPLTLTCAVSGFSLDIYGMSWVRQAPGKGLEWIGIIYIEGITYYANWAKGRFTISKTSSTTLELKMTSLTTEDTAMYFCVAGVGRIWGPGTLVTVSS
VL: YVMMTQTPSSVSAAVGGTVTINCQASQSLYNNNNLAWFQQKPGQPPKRLIYPASTLASGVSSRFKGSGSGTQFTLTISDVQRDDAATYFCLGEFSCSSADCYAFGGGTEVVVK
notes: as for B1
B9: Clone 22 (Fab, V domains shown)
VH: QQLEESGGRLVTPGTPLTLTCTVSGIDLSNNAMSWVRQAPGKGLEYIGVIGNTGTTYYASWAKGRFTISKTSSTTVDLKMTSLTTEDTATYFCVRGPPSYSNSVKNIWGPGTLVTIS
VL: B2 VL with M3V, R82C
notes: as for B1
B10: Clone 11 (Fab, V domains shown)
VH: B2 VH with E5K, T13A, T19R, K23T, I34V, D56T, S61N, E87D, I117V
VL: B2 VL with S10P, S25A, S36T, L38Y, E57A, S69F, R82C, G92A, F94W, T100S
notes: as for B1
B11: Clone 15 (Fab, V domains shown)
VH: B3 VH with S2Q, D55T, T85A, E86S
VL: B2 VL with P2V, M3V, L4M, R82C
notes: as for B1
B12: Clone 7 (Fab, V domains shown)
VH: B3 VH with S2Q, T12A, T18R, I33V, D55T, S60N, E86D, K105R, I116V
VL: B3 VL with K32N, S47N, E57A, Q81K, F94Y, A100S, K106M, L107V
notes: as for B1
B13: Clone 5 (Fab, V domains shown)
VH: B2 VH with E5K, T13A, T19R, K23T, I34V, D56T, S73T, E87D, I117V
VL: B3 VL with M3V, A100G, K106E, L107V, E108V, I109V
notes: Rabbit/human chimeric Fab on phage; also Fab-AP
B14: Clone 3 (Fab, V domains shown)
VH: B2 VH with E5K, T13A, T19R, K23R, I34V, D56S, S61N, T86A, E87D, I117V
VL: B3 VL with K106E, L107V, E108V, I109V
notes: as for B1
B15: Clone 21 (Fab, V domains shown)
VH: B2 VH with E5K, T13A, T19R, K23T, I34V, D56T, S61N, E87D
VL: B3 VL with P2V, M3V, L4M, K106M, L107V
notes: as for B1

Target: T1, HIS-CALRdel52 (produced in E. coli)
Assay: QC monoclonal phage ELISA
Excerpt: Next, recombinant CALRdel52 protein (SEQ ID NO: 5) and the 22 amino acid CALRmut peptide (SEQ ID NO: 1) were used for selecting specific binders from the immune rabbit/human Fab library prepared above. By DNA sequencing, 15 unique Fabs were identified and specific binding to the CALRmut target peptide was confirmed by phage ELISA and by QC ELISA after soluble expression of Fab-AP (Fab-conjugated to Alkaline Phosphatase).

Q: For B1, which “phage ELISA signal (Coating: CALR)” value is on record?
A: 1.91

Q: For B2, which “phage ELISA signal (Coating: CALR)” value is on record?
A: 2.54

Q: With B3 as the binder, how does the “phage ELISA signal (Coating: CALR)” value read?
A: 2.69

Q: For B4, which “phage ELISA signal (Coating: CALR)” value is on record?
A: 2.23

Q: B5 was tested. Which “phage ELISA signal (Coating: CALR)” value did it give?
A: 2.87

Q: B6 was tested. Which “phage ELISA signal (Coating: CALR)” value did it give?
A: 2.18

Q: B7 was tested. Which “phage ELISA signal (Coating: CALR)” value did it give?
A: 2.94

Q: For B8, which “phage ELISA signal (Coating: CALR)” value is on record?
A: 2.92

Target: T2, 22 amino acid CALRmut-specific peptide
Assay: phage ELISA; QC ELISA of soluble Fab-AP

Q: Does B1 bind?
A: binds

Q: Does B2 bind?
A: binds

Q: Does B9 bind?
A: binds

Q: Does B10 bind?
A: binds

Q: Does B3 bind?
A: binds

Q: Does B4 bind?
A: binds

Q: Does B11 bind?
A: binds

Q: Does B12 bind?
A: binds

Q: Does B13 bind?
A: binds

Q: Does B14 bind?
A: binds

Q: Does B5 bind?
A: binds

Q: Does B6 bind?
A: binds

Q: Does B15 bind?
A: binds

Q: Does B7 bind?
A: binds

Q: Does B8 bind?
A: binds
